Experimental findings from US20210340173A1 are described below.

In one test the target is CCR5 on HEK-CCR5 cells (UniProt P51681). Kind of test: cell-based or functional assay.
The target in test [1] is CCR5-RLuc8 on CHO-CCR5-RLuc8/YFP-CAAX cells (UniProt P51681). Kind of test: cell-based or functional assay.

In the test with CCR5 on HEK-CCR5 cells, “5P12-RANTES reference standard (from UniProt P13501 34-91) (ligand)” returned a Ca2+ flux signaling at 300 nM on HEK-CCR5 cells (bottom of the scale) of 0%. Besides, in test [1], the CCR5 internalization (bystander BRET) at 300 nM (bottom of the scale) was 0%.
PSC-RANTES reference standard (ligand) had a Ca2+ flux signaling at 300 nM on HEK-CCR5 cells (top of the scale) in the test with CCR5 on HEK-CCR5 cells of 100%. In test [1], this substance registered a CCR5 internalization (bystander BRET) at 300 nM (top of the scale) of 100%.
